In PMC6220982:
Values joined by “and” are separate entries in the source; they are usually repeats but may differ in a detail not shown here. Equal entries are not always repeated.

Experiments:
[1] = target: Asn3-ISP (intracellular subtilisin protease from Planococcus sp. AW02J18, starting at Asn3) (Planococcus sp. AW02J18); experiment: SEC; pre-calibrated Superdex 200 10/300 GL; 500 µl Asn3-ISP at 0.8 mg/mL; 50 mM Tris-HCl pH 7.5, 150 mM NaCl; without calcium or with 1 mM EDTA (overnight)
[2] = target: Asn3-ISP (intracellular subtilisin protease from Planococcus sp. AW02J18, starting at Asn3) (Planococcus sp. AW02J18); experiment: SEC; pre-calibrated Superdex 200 10/300 GL; 500 µl Asn3-ISP at 0.8 mg/mL; 50 mM Tris-HCl pH 7.5, 150 mM NaCl; with 2 mM CaCl2 added immediately before the run

stoichiometry N (monomers per oligomer) [1]: 3.3 | stoichiometry N (monomers per oligomer) [2]: 3.7 and 2.5
Substance: Asn3-ISP (intracellular subtilisin protease from Planococcus sp. AW02J18, starting at Asn3) (enzyme)
